Test results from article PMC3258144 (Nucleic Acids Research, 2011).

What was measured:
native gel or EMSA = target: the molecule itself; assay: native gel or EMSA
[1] = target: the molecule itself; assay: fluorescence polarisation

Protein | binding result (native gel or EMSA) | binding result [1]
Dnmt3a-C K840E (domain or fragment, mouse, UniProt O88508 608-908, looked up) NHDQEFDPPKVYPPVPAEKRKPIRVLSLFDGIATGLLVLKDLGIQVDRYIASEVCEDSITVGMVRHQGKIMYVGDVRSVTQKHIQEWGPFDLVIGGSPCNDLSIVNPARKGLYEGTGRLFFEFYRLLHDARPKEGDDRPFFWLFENVVAMGVSDKRDISRFLESNPVMIDAKEVSAAHRARYFWGNLPGMNRPLASTVNDKLELQECLEHGRIAKFSKVRTITTRSNSIKQGEDQHFPVFMNEKEDILWCTEMERVFGFPVHYTDVSNMSRLARQRLLGRSWSVPVIRHLFAPLKEYFACV | binds | –
Dnmt3a-C R827E (domain or fragment, mouse, UniProt O88508 608-908, looked up) NHDQEFDPPKVYPPVPAEKRKPIRVLSLFDGIATGLLVLKDLGIQVDRYIASEVCEDSITVGMVRHQGKIMYVGDVRSVTQKHIQEWGPFDLVIGGSPCNDLSIVNPARKGLYEGTGRLFFEFYRLLHDARPKEGDDRPFFWLFENVVAMGVSDKRDISRFLESNPVMIDAKEVSAAHRARYFWGNLPGMNRPLASTVNDKLELQECLEHGRIAKFSKVETITTRSNSIKQGKDQHFPVFMNEKEDILWCTEMERVFGFPVHYTDVSNMSRLARQRLLGRSWSVPVIRHLFAPLKEYFACV | binds | binds
Dnmt3a-C E850H (domain or fragment, mouse, UniProt O88508 608-908, looked up) NHDQEFDPPKVYPPVPAEKRKPIRVLSLFDGIATGLLVLKDLGIQVDRYIASEVCEDSITVGMVRHQGKIMYVGDVRSVTQKHIQEWGPFDLVIGGSPCNDLSIVNPARKGLYEGTGRLFFEFYRLLHDARPKEGDDRPFFWLFENVVAMGVSDKRDISRFLESNPVMIDAKEVSAAHRARYFWGNLPGMNRPLASTVNDKLELQECLEHGRIAKFSKVRTITTRSNSIKQGKDQHFPVFMNHKEDILWCTEMERVFGFPVHYTDVSNMSRLARQRLLGRSWSVPVIRHLFAPLKEYFACV | binds | –
